± gives the uncertainty stated by the source.
B1: KAT8 regulatory NSL complex subunit 2, residues 28 to 91; numbered along this chain, Q9H9L4 (parent)
chain: CAFTHRPCSHPRLEGQEFCIKHILEDKNAPFKQCSYISTKNGKRCPNAAPKPEKKDGVSFCAEH

Variants of: B1
Assay: abundance fitness (aPCA) (normalised: wild type 0, dead -1); higher = more abundant; growth selection in yeast, the domain comes from the species named
Settings: Homo sapiens

Row | Variant | abundance fitness
1 | CAFTHRPCSHPRLEGQEFCIKHILEDKNAPFKQCSYISTKNGKRCPNAAPKPEKKDGVMFCAEH [S59M] | -0.084 ± 0.11
2 | CAFTHRPCSHPRLEGQEFCIKHILEDKNAPFKQCSYISTKNGKRCPNAAPKPEKKDGVNFCAEH [S59N] | -0.189 ± 0.084
3 | CAFTHRPCSHPRLEGQEFCIKHILEDKNAPFKQCSYISTKNGKRCPNAAPKPEKKDGVPFCAEH [S59P] | -0.141 ± 0.078
4 | CAFTHRPCSHPRLEGQEFCIKHILEDKNAPFKQCSYISTKNGKRCPNAAPKPEKKDGVQFCAEH [S59Q] | -0.045 ± 0.098
5 | CAFTHRPCSHPRLEGQEFCIKHILEDKNAPFKQCSYISTKNGKRCPNAAPKPEKKDGVRFCAEH [S59R] | -0.12 ± 0.09
6 | CAFTHRPCSHPRLEGQEFCIKHILEDKNAPFKQCSYISTKNGKRCPNAAPKPEKKDGVTFCAEH [S59T] | -0.036 ± 0.058
7 | CAFTHRPCSHPRLEGQEFCIKHILEDKNAPFKQCSYISTKNGKRCPNAAPKPEKKDGVVFCAEH [S59V] | -0.095 ± 0.091
8 | CAFTHRPCSHPRLEGQEFCIKHILEDKNAPFKQCSYISTKNGKRCPNAAPKPEKKDGVWFCAEH [S59W] | 0.01 ± 0.47
9 | CAFTHRPCSHPRLEGQEFCIKHILEDKNAPFKQCSYISTKNGKRCPNAAPKPEKKDGVYFCAEH [S59Y] | -0.048 ± 0.081
10 | CAFTHRPCSHPRLEGQEFCIKHILEDKNAPFKQCSYISTKNGKRCPNAAPKPEKKDGVSFAAEH [C61A] | -0.483 ± 0.054
11 | CAFTHRPCSHPRLEGQEFCIKHILEDKNAPFKQCSYISTKNGKRCPNAAPKPEKKDGVSFEAEH [C61E] | -0.399 ± 0.065
12 | CAFTHRPCSHPRLEGQEFCIKHILEDKNAPFKQCSYISTKNGKRCPNAAPKPEKKDGVSFFAEH [C61F] | -0.722 ± 0.11
13 | CAFTHRPCSHPRLEGQEFCIKHILEDKNAPFKQCSYISTKNGKRCPNAAPKPEKKDGVSFGAEH [C61G] | -0.393 ± 0.041
14 | CAFTHRPCSHPRLEGQEFCIKHILEDKNAPFKQCSYISTKNGKRCPNAAPKPEKKDGVSFHAEH [C61H] | -0.447 ± 0.082
15 | CAFTHRPCSHPRLEGQEFCIKHILEDKNAPFKQCSYISTKNGKRCPNAAPKPEKKDGVSFIAEH [C61I] | -0.499 ± 0.085
16 | CAFTHRPCSHPRLEGQEFCIKHILEDKNAPFKQCSYISTKNGKRCPNAAPKPEKKDGVSFKAEH [C61K] | -0.436 ± 0.064
17 | CAFTHRPCSHPRLEGQEFCIKHILEDKNAPFKQCSYISTKNGKRCPNAAPKPEKKDGVSFMAEH [C61M] | -0.573 ± 0.067
18 | CAFTHRPCSHPRLEGQEFCIKHILEDKNAPFKQCSYISTKNGKRCPNAAPKPEKKDGVSFNAEH [C61N] | -0.449 ± 0.079
19 | CAFTHRPCSHPRLEGQEFCIKHILEDKNAPFKQCSYISTKNGKRCPNAAPKPEKKDGVSFQAEH [C61Q] | -0.44 ± 0.077
20 | CAFTHRPCSHPRLEGQEFCIKHILEDKNAPFKQCSYISTKNGKRCPNAAPKPEKKDGVSFRAEH [C61R] | -0.56 ± 0.046
21 | CAFTHRPCSHPRLEGQEFCIKHILEDKNAPFKQCSYISTKNGKRCPNAAPKPEKKDGVSFSAEH [C61S] | -0.432 ± 0.046

Row | Variant | abundance fitness
22 | CAFTHRPCSHPRLEGQEFCIKHILEDKNAPFKQCSYISTKNGKRCPNAAPKPEKKDGVSFTAEH [C61T] | -0.356 ± 0.049
23 | CAFTHRPCSHPRLEGQEFCIKHILEDKNAPFKQCSYISTKNGKRCPNAAPKPEKKDGVSFVAEH [C61V] | -0.426 ± 0.053
24 | CAFTHRPCSHPRLEGQEFCIKHILEDKNAPFKQCSYISTKNGKRCPNAAPKPEKKDGVSFWAEH [C61W] | -0.667 ± 0.058
25 | CAFTHRPCSHPRLEGQEFCIKHILEDKNAPFKQCSYISTKNGKRCPNAAPKPEKKDGVSFYAEH [C61Y] | -0.585 ± 0.081
26 | CAFTHRPCSHPRLEGQEFCIKHILEDKNAPFKQCSYISTKNGKRCPNAAPKPEKKDGVSFCCEH [A62C] | -0.018 ± 0.057
27 | CAFTHRPCSHPRLEGQEFCIKHILEDKNAPFKQCSYISTKNGKRCPNAAPKPEKKDGVSFCDEH [A62D] | -0.093 ± 0.07
28 | CAFTHRPCSHPRLEGQEFCIKHILEDKNAPFKQCSYISTKNGKRCPNAAPKPEKKDGVSFCEEH [A62E] | -0.101 ± 0.078
29 | CAFTHRPCSHPRLEGQEFCIKHILEDKNAPFKQCSYISTKNGKRCPNAAPKPEKKDGVSFCFEH [A62F] | -0.111 ± 0.066
30 | CAFTHRPCSHPRLEGQEFCIKHILEDKNAPFKQCSYISTKNGKRCPNAAPKPEKKDGVSFCGEH [A62G] | -0.078 ± 0.046
31 | CAFTHRPCSHPRLEGQEFCIKHILEDKNAPFKQCSYISTKNGKRCPNAAPKPEKKDGVSFCHEH [A62H] | -0.081 ± 0.088
32 | CAFTHRPCSHPRLEGQEFCIKHILEDKNAPFKQCSYISTKNGKRCPNAAPKPEKKDGVSFCIEH [A62I] | -0.057 ± 0.076
33 | CAFTHRPCSHPRLEGQEFCIKHILEDKNAPFKQCSYISTKNGKRCPNAAPKPEKKDGVSFCKEH [A62K] | 0.095 ± 0.075
34 | CAFTHRPCSHPRLEGQEFCIKHILEDKNAPFKQCSYISTKNGKRCPNAAPKPEKKDGVSFCLEH [A62L] | -0.087 ± 0.035
35 | CAFTHRPCSHPRLEGQEFCIKHILEDKNAPFKQCSYISTKNGKRCPNAAPKPEKKDGVSFCMEH [A62M] | -0.103 ± 0.051
36 | CAFTHRPCSHPRLEGQEFCIKHILEDKNAPFKQCSYISTKNGKRCPNAAPKPEKKDGVSFCNEH [A62N] | -0.105 ± 0.14
37 | CAFTHRPCSHPRLEGQEFCIKHILEDKNAPFKQCSYISTKNGKRCPNAAPKPEKKDGVSFCPEH [A62P] | -0.065 ± 0.073
38 | CAFTHRPCSHPRLEGQEFCIKHILEDKNAPFKQCSYISTKNGKRCPNAAPKPEKKDGVSFCQEH [A62Q] | -0.057 ± 0.061
39 | CAFTHRPCSHPRLEGQEFCIKHILEDKNAPFKQCSYISTKNGKRCPNAAPKPEKKDGVSFCREH [A62R] | -0.028 ± 0.035
40 | CAFTHRPCSHPRLEGQEFCIKHILEDKNAPFKQCSYISTKNGKRCPNAAPKPEKKDGVSFCSEH [A62S] | -0.055 ± 0.044
41 | CAFTHRPCSHPRLEGQEFCIKHILEDKNAPFKQCSYISTKNGKRCPNAAPKPEKKDGVSFCTEH [A62T] | -0.065 ± 0.059
42 | CAFTHRPCSHPRLEGQEFCIKHILEDKNAPFKQCSYISTKNGKRCPNAAPKPEKKDGVSFCVEH [A62V] | -0.059 ± 0.051

— the Human Domainome abundance scans (Beltran et al. 2025)
